Test results as given in article PMC5791736, “CCPG1 Is a Non-canonical Autophagy Cargo Receptor Essential for ER-Phagy and Pancreatic ER Proteostasis” (Developmental Cell, 2018).

Target: T1, GST-CCPG1 NTD (bacterial) (1-230) (human, UniProt Q9ULG6 1-230)
T1 construct: CCPG1, human, N-terminal amino acids 1-230 (NTD); source: E. coli Rosetta II (DE3), pre-purified on glutathione Sepharose beads
T1 sequence (looked up): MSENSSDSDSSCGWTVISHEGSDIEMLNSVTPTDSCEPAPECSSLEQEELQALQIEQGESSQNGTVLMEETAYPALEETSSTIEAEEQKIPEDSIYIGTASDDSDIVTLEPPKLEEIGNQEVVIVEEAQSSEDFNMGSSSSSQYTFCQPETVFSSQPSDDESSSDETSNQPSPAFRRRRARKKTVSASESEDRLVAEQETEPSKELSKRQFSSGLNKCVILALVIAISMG
Experiment: pull-down; GST-CCPG1 NTD pre-purified on glutathione Sepharose beads, incubated with purified recombinant protein (His-GABARAP or His-FIP200) in IGEPAL IP buffer, 4°C; immunoblot
Details: both partners purified

B1: His-GABARAP (natural protein, human, UniProt O95166 1-117, looked up)
chain: MKFVYKEEHPFEKRRSEGEKIRKKYPDRVPVIVEKAPKARIGDLDKKKYLVPSDLTVGQFYFLIRKRIHLRAEDALFFFVNNVIPPTSATMGQLYQEHHEEDFFLYIAYSDESVYGL
notes: GABARAP, human ATG8 ortholog; also called purified, recombinant His-GABARAP; source: recombinant, purified
Question: Does B1 bind?
Answer: Result: binds
